Target: H. influenzae VapXD2 heterotrimer (VapD homodimer with one VapX) (Haemophilus influenzae (non-typeable, strain 86-028NP)) (UniProt P71351)
Test: crystal structure

“H. influenzae VapXD2 heterotrimer (VapD homodimer with one VapX) (from UniProt P71351 1-91; Q4QN94 1-63) (complex)” was tested, and the stoichiometry N was 3.

From PMC7867571
